From US20220259317A1

Biological target: FLT3 CAR (Short Form; NC7 based FLT3 CAR), SEQ ID NO: 1/29
Experiment: flow cytometry of FLT3 CAR transduced T cells stained with biotinylated protein L and streptavidin PE

Sequence of FLT3 CAR (Short Form; NC7 based FLT3 CAR), SEQ ID NO: 1/29 (chain, as listed by the source): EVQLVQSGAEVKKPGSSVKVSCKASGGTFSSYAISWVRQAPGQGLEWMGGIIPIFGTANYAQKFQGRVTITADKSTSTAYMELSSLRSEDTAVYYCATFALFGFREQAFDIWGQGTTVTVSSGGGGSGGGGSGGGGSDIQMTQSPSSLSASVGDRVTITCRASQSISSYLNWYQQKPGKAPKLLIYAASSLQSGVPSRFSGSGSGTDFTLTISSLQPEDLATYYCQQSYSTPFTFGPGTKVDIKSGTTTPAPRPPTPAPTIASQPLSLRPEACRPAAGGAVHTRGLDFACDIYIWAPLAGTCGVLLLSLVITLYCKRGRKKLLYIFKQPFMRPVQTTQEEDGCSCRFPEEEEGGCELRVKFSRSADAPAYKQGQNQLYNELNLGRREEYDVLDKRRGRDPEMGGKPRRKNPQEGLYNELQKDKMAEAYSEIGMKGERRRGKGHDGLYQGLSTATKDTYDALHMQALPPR

% positive cells: 77.1%
Substance: biotinylated protein L (Genscript)
